First the molecules themselves.
B1: StOFOR2 (Sulfurisphaera tokodaii str. 7) (protein)
chain 1: MTRIVWMIGGAQGLGVDTSANIFGNAVAKAGYYLFGNREYYSNIKGRHSYFEVVISEKPIRSLSSYVNILASFDAETVFQHFTETKEYLIYNVEYENTTVDLVKSMEPEMAEQVKEALSKERLGFTIKDVLEYLKRRGVKVIGFNYTELIKKIADTFKVPMSVVERAKNMIAVGASYGLLGLKFDYLKDAISSTFKNELFIKFNTMAAELGYNSVPNVYKLQEYKIEKQRIQVDGNTISAMGKLAGGLRFQSYYPITPASDESVYIEANQNLDMIVEGNELRKGGVVVVQAEDELAAINMAVGAALTGVRSATATSGPGFSLMSEGISWAGMNEVPVVITYYMRGAPATGLPTRSGQADLKFALNVGHGEFPRIVIASGDHVEIFWDAIWALNLAEKYQTPVIHIIEKTLANAYSVFEEELITNRPYVIERGKIVKPTSDYFNRFEVTEDGISPRVFLGQASIFYTGDEHNEEGHITENSINRMKMYEKRNKKLETADKEIPEEQRVNIVGDADIVLLTWGSPKGAILDAMEELSKDGIKTMMVQVKMFNPYPKNLMKKILSGKSKIIAVENNYNAQGAEVLAEKTGIFATNYILKWTGRPITREEVIEGIKKILERDEKRVVLYGGA
chain 2: MVERKPVFVDWCPGCGDFGILRAEEMAIRELGINPKSVVIVSGIGCSGKIPHFMNLPISGVHTLHGRSIAFATGIKLSNPSLEVIVNVGDGDGLGIGMGHFVHLGRRNIDIAVLVHNNGVYGLTKGQASPTLHRGEKTKSLPKPNIMDAVNPLAVALAAGYTFVARGYAYDVMHLKELIKKAILHKGSALVDILQPCPTYNDINTKEWYDKRVYKLDNVPGWDPVVRKEEEAQKKFEQAIMKSYEWGEKIPIGIFYQNELVPTFEDRLTSNIPNYREYYPAKQQIEINGISTTKIDELIKAKRI
notes: recombinant in E. coli C43(DE3), genes from S. tokodaii genomic DNA in pOFORAB (pET-17b based), untagged; (ab)2 heterotetramer with TPP, Mg2+, [4Fe-4S]
B2: StOFOR1 (Sulfurisphaera tokodaii str. 7) (protein)
chain 1: MRLSWVIGGAQGTGIDTAANIFGNAVASAGYYIYGNREYYSNIKGRHSYFSLTISDKRVRSNTQKIDILVSFDAETVFQHFYDVKDILIYNKAVETTKIDAVQSMEPELAERIKDFLTKQGYETTVKGALEYASKNNVTLIPVNYDEIAKKVADEMKVPLSVTERVKNIVGITISYKLLGLDVNYLIEAINSTFKQDLYRKMNELAVKDSYDIVESRYNLKPSSKERRRFWLDGNTAVAIGKIYGGVRFQSYYPITPASDESVYIEAHQDVLMEDPITGDKKKGTIVVVQAEDELAAINMAIGAALTGVRAATATSGPGFSLMVEGLGWAGMNEVPVVITYYIRGGPSTGLPTRTAQSDLIFPIFAGHGEFPKIVLASGDHAEAFKDAIWALNLAEKYQTPVIHLVEKTLANSYSTIPYEELELDKLKAERGKIVESGDISYKRFKFTEDGISPRAFLGKATMYYTGDEHNEEGHISEDVVNRTMMYEKRMKKLEVADKEIPEESRVKIYGDLNSRNLIITWGSPTGVLRDILEESNFDFTLLQIRMFSPFPKNLVSKLMEGRDKIITVEGNYLAQTSLLVKMYTGKDVTNSILKWNGRPFLRDELEEALIKVIKDGEKRVVLNGGI
chain 2: MAAFKPQWNDWCPGCGNFGILNAEQQAIVELGVDTKNVVVVSGIGCSGKIPHFFRTPISGVHTLHGRAIAFATGIKLSNPDLVVIVNGGDGDLLGIGAGHFVAAGRRNVDMVVILHDNGVYGLTKGQASPTLKRGEKPKSLPRPNINDAVNPIALAISSGYTFVARGYAYDVKHLKELIKSAIKHKGLALIDVLQPCPTYNDINTKEWYDKRIYKLDTLPDWDPVVKKPEEVNEKIKRAIDKSLEWGDRIPIGIFYQNELVPSYEERIKANSPAYLDYTPAKQLIEKEGKLTTIIDPLLKEREVD
notes: recombinant in E. coli C43(DE3), pET-17b-based pOFORAB, untagged; 70 kDa alpha and 34 kDa beta subunits; (ab)2 heterotetramer with TPP, Mg2+, [4Fe-4S]
B3: StOFOR1 (Sulfurisphaera tokodaii str. 7; Q96Y66:T349L) (protein)
chain 1: B2 chain 1 with T349L
chain 2: B2 chain 2
notes: as for B2
B4: StOFOR1 (Sulfurisphaera tokodaii str. 7; Q96Y68:K49I) (protein)
chain 1: B2 chain 1
chain 2: B2 chain 2 with K49I
notes: as for B2
B5: StOFOR1 (Sulfurisphaera tokodaii str. 7; Q96Y66:S41A) (protein)
chain 1: B2 chain 1 with S41A
chain 2: B2 chain 2
notes: as for B2

The values below come from publication PMC5020499, “Crystal structures of archaeal 2-oxoacid:ferredoxin oxidoreductases from Sulfolobus tokodaii” (Scientific Reports, 2016).

Residue numbers refer to the chain shown, from its start. Numbers in names are those of the source.

Substrate in one data set: CC(=O)C(=O)O
In words: purified protein. It is filed as biochemical, Sulfurisphaera tokodaii. The conditions noted are these: 0.25 mM CoA, 2 mM methylviologen, 50 mM Tris-HCl pH 8.5, 80 °C.
As a reminder, the Km is the substrate concentration at which the rate is half of its maximum. What is called Vmax is the top rate of the reaction or transport when substrate is in excess. As to B1, the Km was found to be 1600 ± 300 µM and the maximal velocity (Vmax) was 7 µmol/min/mg.

As for B2, the Km was determined as 320 ± 80 µM and the maximal velocity (Vmax) was 7.5 µmol/min/mg.

In the case of B3, the Michaelis-Menten constant (Km) stood at 510 ± 110 µM and the maximal velocity (Vmax) came out at 3.2 µmol/min/mg.

Consider B4, for which the Michaelis constant (Km) turned out to be 910 ± 120 µM and the Vmax came out at 2.1 µmol/min/mg.

Consider B5, for which the Km amounted to 490 ± 90 µM and the Vmax turned out to be 2.2 µmol/min/mg.

Substrate in the next data set: O=C(O)CCC(=O)C(=O)O
In words: purified protein. To be noted: 0.25 mM CoA, 2 mM methylviologen, 50 mM Tris-HCl pH 8.5, 80 °C. The class given is biochemical, Sulfurisphaera tokodaii.
Turning to B1, the Km came to 15000 ± 2000 µM and the Vmax was 1.4 µmol/min/mg.

With B2, the Km is 2100 ± 300 µM and the maximum rate (Vmax) was determined as 2.7 µmol/min/mg.

For B3, the Michaelis constant (Km) stood at 2300 ± 300 µM and the Vmax came out at 2 µmol/min/mg.

Regarding B5, the Michaelis-Menten constant (Km) stood at 3200 ± 400 µM and the Vmax came to 1.1 µmol/min/mg.
